Article doi:10.1101/713933

Target: portal protein of bacteriophage P23-45 (in situ, in the procapsid) (bacteriophage P23-45 (Thermus thermophilus phage))
Assay: cryo-EM structure

portal protein of bacteriophage P23-45 (in situ, in the procapsid) (natural protein)
stoichiometry N: 12 subunits
